Reference: a protein production outcome set (Wang et al. 2014)

Test: label from the status in PepcDB records

Row | Sequence | protein production
1 | MGMDLRVVPAEEWLNRGIDSSHDGEHDLGLMVTDFLETGGGSGGAGSWCSSDSDSGFPDPSYLSDKIQYLKYSMAQHETEVLSVVRTLMLTIKEKDLHSVKSGTCNASCIRFYLAKLLRLSGYDAAVCSARWQGGGKVPGGDNEYIDIILSDTEVGQDDRLIVDIDFRSHFEIARAVDSYQRIMESLPVVYVGTVARLNQFLQVMVDAAKFSLKQNSMPLPPWRSLNYLRSKWHSPHKRHLGPIDQQGPGMFSPGLHGQCAENLKRLQFALQVEQEAERFMKKKSGFSRRN | failed
2 | MGMFERDTEIYLDRDALREDYQPENLVGRDTELNRYRAALQPVINGEQPNNIFLYGKTGVGKTAGTRYLIDHLEEDAAKYEDIDLTVKMLNCDGLSSSYQIATRLVNEFRDETSQISTTGYPRATVYDMLWTELDSCGGTIYIVLDEVDHIEDDSILYQLPRARANDNLSSAKIGIIGISNDFSFRDDLSPKVKSSLCEEEIQFPAYDAKELIQILQQRADVAFHDGVLEDGVIELCAAYGAKDAGDARQSLDLLMKTGDLARDKDTDTISEDLVREARDVLERGRIQEGISGLTQHGHLVVYAMVTLDQEGKTPARTRDIRPRYTNFAEKAGIDPLVPRRMRDHLGELSMLGIISAIERNEGRRGGTYREYSLEMDPEMILAALEKTVDDVGIHKSVTNLVDAEATLSDFQST | failed
3 | MGMKYWSSKRRLYLTPVSFGFACSALLMLGTLSSYPDWLTCNPAPVVNQNDAVIYYFFRNIMMAVLFMSSIILYYFRQRIMHSWKAHVLTFTACILFTLTIIVLSWLYSSHSPWLSVNFIDDLSHTFTPLWQSIIGWLLMAVWFITLILLISLSKLRNIFWFSGAFFCSAYLFTLFQLLSTAGELDQTWYQARFFETLCTLFLILVLLVDVFILYRESNHKYVHSYQNSIRDPLTRLYNRSFFYDTLNQQLAKVNAQHPLSVLISDLDHFKRINDSYGHVAGDKVIQFAASVLESHSRVDDAAARIGGEEFALLLVNTGEKEAQAIAERIRLAVSAGESHLPERMTISMGVYTTYDNSVTAEACVQRADEAMYEAKNNGRNQVIVWHQQGG | failed
4 | MGMLGLDLLKEVPGLLEEIKALPLRLDEERFRFWLQQDYPFVEALYRYQVGLLLEAPQAHRAPLVQALMATVEELDWLLLQGASPSAPVHPVRAGYIALLEEMGRLPYAYRVVFFYFLNGLFLEAWAHHVPEEGPWAELSQHWFAPEFQAVLYDLEVLARGLWEDLDPEVVRTYLRRILEAEKATWSLLL | not failed
5 | MGNFHATTIFAVHHNGECAMAGDGQVTMGNAVVMKHTARKVRKLFQGKVLAGFAGSVADAFTLFEMFEGKLEEYNGNLQRAAVEMAKQWRGDKMLRQLEAMLIVMDKTTMLLVSGTGEVIEPDDGILAIGSGGNYALSAGRALKQYASEHLTAKQIAKASLEIAGDICVYTNHNIIVEEL | not failed
6 | MGNFSLFSSFNPEGQHDDVANRWRSPTPMRYIIPNIITILAICAGMSSIRLAFEHRYEAAILMVLLAAILDGADGRIARLMDGSSSFGAQMDSLADVINFGVAPSLIVYSFVLNQAHQVGWIAGLVYCVACCLRLARFNVMLDNTDIPKWQGNYFVGVPAPAGALLLLLPMYLGALGLVPSWSWALFFSLYTVIIAFLLVSRLPVWNGKTINQNLRRDIVVPCMLGIVIYVGFLATYTWHTLLITAVSYMIFLPCSFVAYNKRAALEEKKANIKTLSSS | failed
7 | MGNFTFEEMNLMCIYNTGSRTGLIDSLREMRGELAPEETELRELTDSALGNLQAMSDAEFAELELYPDFDQ | failed
8 | MGNNKNLHGHLFALTANVMWGLMSPIGKSALQEFSAISVTTFRMVGAAAAFWILSIFCKQEHVDHRDMLKIFFASLFALVFNQGIFIFGLSMTSPIDASIVTTTLPIVTMIVAAIYLKEPITNKKVLGIFVGAMGALILIMSSQAASSGNGSLIGDLLCLVAQISFSIYLTVFKGLSQRYSAVTINKWMFIYASMCYIPFSYQDISVIQWTSIPMVAILQVLYVVLGGSFLAYLCIMTAQKLLRPTVVSMYNYMQPIVATIAAILMGIGSFGWEKGIAITLVFLGVYIVTQSKSKADFEKAGKEL | failed
9 | MGPINLLWLQAAGCGGCTMAILEQGRAGWFAELASFDINLLWHPSVSEATADDVIDLLAAVSAARTPLSVLVVEGAVLRGPNGSGRFNMLGGTGRSMASWISELAPRADYVVAVGSCSAYGGVPAAGHNPTDASGLQFLGTEPGGVLGAAFRSKAGLPVINIAGCAPHPGWIAETLAALALGEFSAAALDSFARPKFFAEHLAHHGCARNEFYEFKASAEAMSQRGCLMEHLGCKATQAVGDCNQRSWNGGGSCTQAGYPCIACTSPGFEAAHNYMTTAKVAGIPVGLPLDMPKAWFVALAALSKSATPKRVRANATADHVVVPPTPSGHRRK | failed
10 | MGPPERPSLGWTPKEADMQSGPQPDEWSSGWKPGDGGAAPLPLSPALSFLLLFPLASALQPTPLPFPELRLVGGPSRCRGRLEVMHSGSWGSVCDDDWDVVDANVVCRQLGCGLALPVPRPLTFGQGRGPIFLDNVECRGQEASLSECGSRGWGVHNCFHYEDVAVLCDEFLHTQPPARKVLTSIAPPTALQNGRGEGSVRLAGGASPCQGRVEILHGGLWGTVCDDDWGLPDAAVVCRQLGCGAALAATTNAFFGYGTGHILLDNVHCEGGEPRLAACQSLGWGVHNCGHHEDAGVLCAATGVGALPSRDTIRFTTAAWASGKKSGRLRLVGGPSPCRGRVEVLYAGGWGTVCDDDWDFADARVACREAGCGPALGATGLGHFGYGRGPVLLDNVGCTGTEARLSDCFHLGWGQHNCGHHEDAGALCAGEAVESDKEAAQAEQAGLRAHKRGSVHARTNNMGPEELGLQVQQDGSETTRMPSPRPRDGHLRLASGTHRCEGRVELFLGQQWGTVCDDAWDLRAAIVLCRQLGCGQALAALGEAHFGPGRGPILLDNVKCRGDESTLLLCSHIRWDVHNCDHSEDASVLCQPL | failed
11 | MGPSILKMLTHAKSHKEALMAFSRREFLKSAAAASAASAVGMSVPSQLLAQAQEGEKGWRWDKSVCRFCGTGCGIMVATKNDQIVAVKGDPAAPVNRGLNCIKGYFNAKIMYGADRLTDPLLRVNEKGEFDKQGKFKPVSWKKAFDVMEAQFKRAYNELGPTGIGVFGSGQYTIQEGYMAAKLIKGGFRSNNLDPNARHCMASAVAAFMETFGIDEPAGCYDDIELTDTIITWGANMAEMHPILWARVTDKKLSNPDKVKVINLSTYTNRTSDLADIEIIFTPQTDLAIWNYIAREIVYNHPESIDMEFVKNHCIFTTGFTDIGYGMRTDIKHAKYDPKELDIAAKERSKVLSEAEGVTLRYLGMKAGDVMEMKHNATAGNHWEITFEDFKKALEPYTLDFVAKLAKGNSEESLESFKEKLQKLANLYIEKERKVVSFWTMGMNQHTRGTWVNEQSYMVHFLLGKQAKPGSGAFSLTGQPSACGTAREVGTFSHRLPADMVVANPKHRAVSEKIWKLPEGTLNPKMGAHYMNIMRDLEDGKIKFAWIQVNNPWQNTANANHWIKAAREMDNFIVCSDAYPGISAKVADLILPTAMIYEKWGAYGNAERRTQHWRQQVVPVGNAMPDVWQMAEFSKRFKLKEVWGAKKIDDKLTLPDVLEKAKAMGYSPEDTLFEVLFANSEAKSFKAKDPIGEGFENTEVFGDRRNVAGSDGEVFKGYGFFIHKYLWEEYRRFGNGHGHDLADFDTYHKVRGLKWPVVDGKETQWRFNAKYDPYARKAGSGEFAFYGDAMKELPRGDLLSPKTEEKFKLTNKAKIFFRPYMDPPEMPSSEYPLWLCTGRVLEHWHSGTMTMRVPELYRAVPEALCYMHPEDAKKLGVKQNEAVWVESRRGKVKARVDTRGRNRTPLGLVYVPWFDEKVYINKVCLDATCPISKQTDFKKCAVKVYKA | failed
12 | MGQFSLDSISSEISERKSFIGRINDEKLSSFDDVVKQRETKSWRAWRRSKRRRFTRKRHGLLASATAEGSESTVHARLNEEDLTAEIVFEECHVSGGELNDVVRLENEMLDRFYGAGFWRSPSQKDTSSGSL | failed
13 | MGQLPPRARAFFAAQRPLRVLMPGCGSAADLPPLLAMGHDVLAVDFSEAAIELAARQWPEAAGRLLLADFFQLQMPAFDCLFERAFLCALPVGMRSQYAERVAALIAPGGALAGVFFVADTERGPPFGMQAEALRELLSPWFELEEDLALDESVAVFRNRERWMVWRRRGLEHHHHHH | failed
14 | MGRDASSYFHLVFFLALTLLAGCSTTGSAPETREAGAGPEELMAAVRANEDRAVLELLSMGVRPDAQARAEQTPLMVAATNGNRRIVRLLLAAGAEVNARSADGNTAVIQAAENGHLAVVRALLAAGANVNVSQGGESLLMKVVASGDLLTAEMLLAAGADVHYRRADGTTALDLARASNNQDLEMLLVQAGAAR | failed
15 | MGREIFNRRLPDNYNDFSHSMDNAANGHYFLRVASSNYKRPDGKNVRTVRDVIAEVDQNGVVVDEWRLFDILDPYRDVIMKTLDQGAVCLNIDASQSGHTLSEEDLAALDSSDKFGDIVGSGAGRNWAHVNSVDYDSEDDSIIISSRHQSAIIKIGRDKKVKWILGTPAGWKAPFNAAILTPVDSKGQKIACQDSGCEGDFDWTWTQHTAFKIDSKSKGDILYLSAFDNGDGRGLEQPAMQSMKYSRSVIYKIDQKNKTVQQIWQYGKERGNEWFSPVTSITEYQTDKNSVFVYSATAGGAFDLSVGAFTSLPNPYLEEFKWGEKEPAVEMQIHGARGYQAMPFSLTKALTELEHHHHHH | failed
16 | MGRIIGIDLGTTTSEIAYVKDGKPCIIRNIEEGDEHAIPSVVSIEGDEIKVGKKAKNQILLKPELTVAEVKRVMGTENIIQIQGKEYRPEEISALILKKLKEVAEYFLGEEVEEAVITVPANFNDIQRKATKNAGEIAGFKVERIINEPTAAAMAYGVDNLDKNGNILVYDFGGGTFDVTILEMFNGVLDVKVSRGNNYLGGKDIDNKLIDHVVNEFNKSTGVKLDTSDSRILARLKEGVEEAKKTLSTSKMAEIVLPYISADKDNNPINLEMVLTREEFEFNVKEIIDSTEDIVNEALEDANITDNEIDTVLLVGGSSRIPYVRNMLEKRFKGKIARGVNPDEAVALGASVQAAIKNDIPVGDSGTIIVTDTCNYTLGVALKGGIFDPIIDRDSKLPANVTKRYCTVMDNQTEVLVSVYEGESRYVSDNTLIDEFILSGIPKADTGKEKIDITFTYDLNGILNVSAEILSTGDEISKIMSTKGLSKEEIQDLKEVVSSNENNNELVPWKSANLFKLVEPNFRLAERKIPMLPSADREKLQEIMSDMKDAIVDNDKMALMKLDEELTDFLFDFVN | failed
17 | MGRLHCTEDPVPEAVGGDMQQLNQLGAQQFSALTEVLFHFLTEQKEVERFLAQLSEFATTNQISLGSLRSIVKSLLLVPNGALKKSLTAKQVQADFITLGLSEEKATYFSEKWKQNTPTLARWAIGQTLMINQLIDMEWKFGVTSGSSELEKVGSIFLQLKLVVKKGNQTKNVYIELTLPQFYSFLHEMERVRTSMECFC | failed
18 | MGRSQATAESYRDSLTIFKNYLVGELGKSISTFQFSDCTKECIYNFREYLLANGSQPSTVNVRVAAIRAYLNYASDMDISVQSVALAILEHHHHHH | failed
19 | MGSAERFQRLLGDRYELRGVLGRGGMAEVRDGWDTRLARPVAIKLLYPALAADADLRARFEREARAAAALTHPHVVAVHDCGEHAGTPYIVMERLSGATLADEIAAGPLPQERVAELLDQILSALIAAHAAGIVHRDIKPGNILIGHTGQAKLADFGIAKTDGVPHTQAGQILGTMAYLSPQRVTGQPAGFADDLYAVGVVGYEALTGRRPFDRDNPAAMVRAILDDVPVPIASVRSDVAPGLIHVIDMAMAREVAFRYPDAATMRAALTGAEPPTQRVGRRQTKVLAAPLPPIPPPPVLPSPRHWRTRLILAVLGIVSTLILVLVLALARGSSGLTSPTSTPTATTVPPATSAVVPPPVPSTPVPAAVPEEPRGPGRGPGPGPGPGKGKGHEKGHGPKGPKGPPHP | failed
